From patent publication US20130136691A1, “GASTRIN […] PEPTIDE COMPOUNDS” (priority 2008, published 2013)

What was measured:
[1] = molecular target: gastrin releasing peptide receptor (GRP-R) (human) (UniProt P30550); assay: competition with 67Ga-AMBA, PC-3 cells
[2] = molecular target: gastrin releasing peptide receptor (GRP-R) (human) (UniProt P30550); assay: competition with 177Lu-AMBA, PC-3 cells
[3] = molecular target: gastrin releasing peptide receptor (GRP-R) (human) (UniProt P30550); assay: competition with 125I-universal ligand, receptor autoradiography on human tumour tissue
[4] = molecular target: human neuromedin-B preferring receptor (NMB-R) (human) (UniProt P28336); assay: as above
Chain of human neuromedin-B preferring receptor (NMB-R) (human) (P28336 whole entry): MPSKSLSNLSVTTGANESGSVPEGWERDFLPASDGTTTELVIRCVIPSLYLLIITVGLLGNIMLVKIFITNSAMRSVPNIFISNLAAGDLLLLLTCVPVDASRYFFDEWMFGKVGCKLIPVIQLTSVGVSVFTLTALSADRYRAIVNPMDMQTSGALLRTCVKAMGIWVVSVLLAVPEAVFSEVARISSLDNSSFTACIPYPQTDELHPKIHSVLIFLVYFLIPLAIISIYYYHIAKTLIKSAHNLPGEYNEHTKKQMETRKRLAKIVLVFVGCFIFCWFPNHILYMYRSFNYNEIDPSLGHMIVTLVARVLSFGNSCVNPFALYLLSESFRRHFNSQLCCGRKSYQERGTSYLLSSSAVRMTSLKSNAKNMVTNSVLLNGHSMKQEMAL

[5] = molecular target: gastrin releasing peptide receptor (GRP-R) (human) (UniProt P30550); assay: saturation binding of carrier-added radioligand, PC-3 cells, 4 C
[6] = molecular target: gastrin releasing peptide receptor (GRP-R) (human) (UniProt P30550); assay: saturation binding, PC-3 cells, calculated from Bmax

Chain of gastrin releasing peptide receptor (GRP-R) (human) (P30550 whole entry): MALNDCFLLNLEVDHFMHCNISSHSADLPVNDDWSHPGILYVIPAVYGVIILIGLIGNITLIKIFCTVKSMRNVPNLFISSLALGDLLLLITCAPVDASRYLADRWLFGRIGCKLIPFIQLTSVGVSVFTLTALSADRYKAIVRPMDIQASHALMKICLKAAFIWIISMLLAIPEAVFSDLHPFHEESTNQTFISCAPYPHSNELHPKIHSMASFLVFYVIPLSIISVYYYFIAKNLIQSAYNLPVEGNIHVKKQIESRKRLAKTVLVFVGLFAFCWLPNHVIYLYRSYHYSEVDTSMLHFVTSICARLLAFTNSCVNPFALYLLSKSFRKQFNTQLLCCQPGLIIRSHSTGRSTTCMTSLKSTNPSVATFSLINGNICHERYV

Ga-AMBA (non-radioactive gallium complex of AMBA) (peptide)
EC50 [1]: 1 nM | EC50 [2]: 1.15 nM

Universal ligand ([DTyr^6, βAla^11, Phe^13, Nle^14]-BBN(6-14)) (peptide)
IC50 [3]: 0.7 nM | IC50 [4]: 0.8 nM

^67Ga-AMBA (peptide)
Binding capacity (Bmax) (fmoles/1 × 10^6 cells) [5]: 402 | Kd [5]: 0.46 nM | Receptors/cell (receptors/cell) [6]: 242000
